# Results from publication PMC3176292, “Mutations in Protein-Binding Hot-Spots on the Hub Protein Smad3 Differentially Affect Its Protein Interactions and Smad3-Regulated Gene Expression” (PLoS ONE, 2011).
# Positions count from the first letter of the chain named. Numbers in names are those of the source.
# T1: Flag-SARA, full length (UniProt O95405 1-1425)
# T1 construct: SARA; plasmid pCMV5b-Flag-SARA; also called SARA FL; source: HEK-293, transfected, in lysate
# T1 sequence (looked up): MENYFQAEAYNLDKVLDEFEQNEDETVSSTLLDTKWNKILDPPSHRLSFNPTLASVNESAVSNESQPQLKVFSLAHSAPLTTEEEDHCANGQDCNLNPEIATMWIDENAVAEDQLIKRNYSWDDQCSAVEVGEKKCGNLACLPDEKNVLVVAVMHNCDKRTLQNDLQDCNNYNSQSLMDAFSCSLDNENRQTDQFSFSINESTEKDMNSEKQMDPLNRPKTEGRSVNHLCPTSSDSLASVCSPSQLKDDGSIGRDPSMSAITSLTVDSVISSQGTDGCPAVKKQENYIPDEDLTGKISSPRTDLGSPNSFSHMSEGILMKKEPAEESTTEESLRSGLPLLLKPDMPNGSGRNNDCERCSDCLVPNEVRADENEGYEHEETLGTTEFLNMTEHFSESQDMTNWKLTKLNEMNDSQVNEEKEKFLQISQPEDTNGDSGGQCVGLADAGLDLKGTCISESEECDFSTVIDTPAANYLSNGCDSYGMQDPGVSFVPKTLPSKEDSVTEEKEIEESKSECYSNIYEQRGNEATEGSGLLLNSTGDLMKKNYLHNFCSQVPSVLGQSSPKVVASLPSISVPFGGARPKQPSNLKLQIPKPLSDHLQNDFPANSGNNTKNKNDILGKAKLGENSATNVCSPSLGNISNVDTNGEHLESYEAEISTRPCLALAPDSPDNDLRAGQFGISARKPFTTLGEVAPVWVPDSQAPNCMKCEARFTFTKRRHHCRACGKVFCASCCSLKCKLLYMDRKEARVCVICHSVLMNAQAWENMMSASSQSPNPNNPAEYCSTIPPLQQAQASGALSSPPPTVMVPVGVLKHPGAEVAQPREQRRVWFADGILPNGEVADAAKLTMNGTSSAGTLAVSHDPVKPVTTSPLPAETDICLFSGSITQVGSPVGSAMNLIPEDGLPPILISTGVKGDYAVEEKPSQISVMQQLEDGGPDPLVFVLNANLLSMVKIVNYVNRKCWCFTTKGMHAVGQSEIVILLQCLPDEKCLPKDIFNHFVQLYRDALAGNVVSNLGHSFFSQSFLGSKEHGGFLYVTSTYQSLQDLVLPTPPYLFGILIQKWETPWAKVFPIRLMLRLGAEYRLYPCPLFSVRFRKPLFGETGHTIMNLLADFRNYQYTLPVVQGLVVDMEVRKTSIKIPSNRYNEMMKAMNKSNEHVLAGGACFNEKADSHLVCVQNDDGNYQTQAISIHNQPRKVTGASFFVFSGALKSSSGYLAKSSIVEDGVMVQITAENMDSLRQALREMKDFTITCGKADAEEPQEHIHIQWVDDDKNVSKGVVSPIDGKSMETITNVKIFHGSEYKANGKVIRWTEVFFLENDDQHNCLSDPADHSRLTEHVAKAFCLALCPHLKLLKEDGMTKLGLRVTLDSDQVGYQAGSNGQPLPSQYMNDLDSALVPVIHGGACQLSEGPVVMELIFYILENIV
# T2: Ski Smad-binding domain (amino acids 2–56) on the 3xFlag-thioredoxin scaffold (UniProt P12755 2-56)
# T2 construct: Ski, amino acids 2–56; cloned into the unique RsrII site of pCI-3xFLAG-Trx; also called Ski aa2–56; TrxSki; source: HEK-293, transfected, in lysate
# T2 sequence (looked up): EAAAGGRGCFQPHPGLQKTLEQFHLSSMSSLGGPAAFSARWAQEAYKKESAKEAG
# T3: Flag-SkiW274E, full length (UniProt P12755 1-728, W274E)
# T3 construct: plasmid pCMV5b-Flag-SkiW274E (from K. Luo); also called SkiW274E FL; SKI274E; source: HEK-293, transfected, in lysate
# T3 sequence (looked up): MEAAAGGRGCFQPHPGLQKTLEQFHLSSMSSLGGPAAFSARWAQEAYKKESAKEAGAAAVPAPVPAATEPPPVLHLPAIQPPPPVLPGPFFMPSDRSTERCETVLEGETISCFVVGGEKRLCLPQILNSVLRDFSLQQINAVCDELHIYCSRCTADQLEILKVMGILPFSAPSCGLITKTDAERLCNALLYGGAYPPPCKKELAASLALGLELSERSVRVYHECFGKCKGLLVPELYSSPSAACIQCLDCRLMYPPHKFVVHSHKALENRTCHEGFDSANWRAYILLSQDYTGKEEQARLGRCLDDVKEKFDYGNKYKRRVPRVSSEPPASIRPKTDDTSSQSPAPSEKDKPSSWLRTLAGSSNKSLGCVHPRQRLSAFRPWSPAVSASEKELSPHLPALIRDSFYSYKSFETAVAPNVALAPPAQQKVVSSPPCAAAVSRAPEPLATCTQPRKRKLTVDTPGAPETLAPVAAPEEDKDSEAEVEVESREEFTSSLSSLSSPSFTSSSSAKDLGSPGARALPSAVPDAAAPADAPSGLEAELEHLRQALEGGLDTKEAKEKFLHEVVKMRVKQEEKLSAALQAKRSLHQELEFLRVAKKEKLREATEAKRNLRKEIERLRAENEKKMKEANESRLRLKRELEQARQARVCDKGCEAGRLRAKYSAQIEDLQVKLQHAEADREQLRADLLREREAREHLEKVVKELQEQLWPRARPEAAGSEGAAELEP
# B1: Renilla luciferase-Smad3 C338A (natural protein, UniProt P84022 1-425, looked up)
# chain: MSSILPFTPPIVKRLLGWKKGEQNGQEEKWCEKAVKSLVKKLKKTGQLDELEKAITTQNVNTKCITIPRSLDGRLQVSHRKGLPHVIYCRLWRWPDLHSHHELRAMELCEFAFNMKKDEVCVNPYHYQRVETPVLPPVLVPRHTEIPAEFPPLDDYSHSIPENTNFPAGIEPQSNIPETPPPGYLSEDGETSDHQMNHSMDAGSPNLSPNPMSPAHNNLDLQPVTYCEPAFWCSISYYELNQRVGETFHASQPSMTVDGFTDPSNSERFCLGLLSNVNRNAAVELTRRHIGRGVRLYYIGGEVFAECLSDSAIFVQSPNCNQRYGWHPATVCKIPPGANLKIFNNQEFAALLAQSVNQGFEAVYQLTRMCTIRMSFVKGWGAEYRRQTVTSTPCWIELHLNGPLQWLDKVLTQMGSPSIRCSSVS
# notes: Smad3; source: HEK-293, transfected together with constitutively active Alk5, in lysate
# B2: Renilla luciferase-Smad3 P335A/P336A (natural protein, UniProt P84022 1-425, looked up)
# chain: B1 chain with P335A, P336A, A338C
# notes: as for B1
# B3: Renilla luciferase-Smad3 V224A (natural protein, UniProt P84022 1-425, looked up)
# chain: B1 chain with V224A, A338C
# notes: as for B1
# B4: Renilla luciferase-Smad3 L340A (natural protein, UniProt P84022 1-425, looked up)
# chain: B1 chain with A338C, L340A
# notes: as for B1
# B5: Renilla luciferase-Smad3 V356R (natural protein, UniProt P84022 1-425, looked up)
# chain: B1 chain with A338C, V356R
# notes: as for B1
# B6: Renilla luciferase-Smad3 Y226A (natural protein, UniProt P84022 1-425, looked up)
# chain: B1 chain with Y226A, A338C
# notes: as for B1
# B7: Renilla luciferase-Smad3 Y298A (natural protein, UniProt P84022 1-425, looked up)
# chain: B1 chain with Y298A, A338C
# notes: as for B1
# B8: Renilla luciferase-Smad3 E267A (natural protein, UniProt P84022 1-425, looked up)
# chain: B1 chain with E267A, A338C
# notes: as for B1
# B9: Renilla luciferase-Smad3 K341A (natural protein, UniProt P84022 1-425, looked up)
# chain: B1 chain with A338C, K341A
# notes: as for B1
# B10: Renilla luciferase-Smad3 Y297A (natural protein, UniProt P84022 1-425, looked up)
# chain: B1 chain with Y297A, A338C
# notes: as for B1
# B11: Renilla luciferase-Smad3 Q322A/Y324A (natural protein, UniProt P84022 1-425, looked up)
# chain: B1 chain with Q322A, Y324A, A338C
# notes: as for B1
# B12: Renilla luciferase-Smad3 S254A (natural protein, UniProt P84022 1-425, looked up)
# chain: B1 chain with S254A, A338C
# notes: as for B1
# B13: Renilla luciferase-Smad3 W326A (natural protein, UniProt P84022 1-425, looked up)
# chain: B1 chain with W326A, A338C
# notes: as for B1
# B14: Renilla luciferase-Smad3 W406A (natural protein, UniProt P84022 1-425, looked up)
# chain: B1 chain with A338C, W406A
# notes: as for B1
# Target: T1, Flag-SARA, full length
# Assay: co-IP; LUMIER: Renilla luciferase-Smad3 and Flag-tagged partner co-expressed with constitutively active Alk5 in HEK-293; Flag protein captured from cleared lysate (TNE: 10 mM Tris-HCl pH 7.8, 150 mM NaCl, 1 mM EDTA, 1% Igepal CA-630) on anti-Flag 96-well plates, 2 h at 4 °C; co-precipitated Renilla luciferase activity, TrxGA background subtracted, percent of wild-type Smad3
# Conditions: partners not purified
row,percent binding relative to wild-type Smad3 [%],Binder
1,136,B1
2,16,B2
3,42,B3
4,58,B4
5,16,B5
6,32,B6
7,150,B7
8,82,B8
9,29,B9
10,38,B10
11,12,B11
12,154,B12
13,13,B13
14,12,B14

# Target: T2, Ski Smad-binding domain (amino acids …)
# Assay: as above
# Conditions: partners not purified
row,percent binding relative to wild-type Smad3 [%],Binder
1,188,B1
2,356,B2
3,524,B3
4,194,B4
5,2,B5
6,32,B6
7,271,B7
8,1150,B8
9,27,B9
10,237,B11
11,10,B12
12,292,B13
13,5,B14

# Target: T3, Flag-SkiW274E, full length
# Assay: as above
# Conditions: partners not purified
row,percent binding relative to wild-type Smad3 [%],Binder
1,111,B1
2,118,B2
3,212,B3
4,57,B4
5,30,B5
6,89,B6
7,121,B7
8,137,B8
9,55,B9
10,29,B10
11,100,B11
12,78,B12
13,88,B13
14,21,B14
